This experiment has as its target transcobalamin saturated with vitamin B12 (holoTC) (human (endogenous in serum)) (UniProt P20062). Nature of the experiment: co-IP; serum samples of 6 pregnant women (weeks 15, 25 and 35) exposed to anti-TC coated magnetic beads; sCD320 measured by in-house sandwich ELISA before and after the precipitation. In general terms: An ELISA detects its analyte on a solid surface through an enzyme-linked reagent.
Sequence of UniProt P20062 (P20062 19-427): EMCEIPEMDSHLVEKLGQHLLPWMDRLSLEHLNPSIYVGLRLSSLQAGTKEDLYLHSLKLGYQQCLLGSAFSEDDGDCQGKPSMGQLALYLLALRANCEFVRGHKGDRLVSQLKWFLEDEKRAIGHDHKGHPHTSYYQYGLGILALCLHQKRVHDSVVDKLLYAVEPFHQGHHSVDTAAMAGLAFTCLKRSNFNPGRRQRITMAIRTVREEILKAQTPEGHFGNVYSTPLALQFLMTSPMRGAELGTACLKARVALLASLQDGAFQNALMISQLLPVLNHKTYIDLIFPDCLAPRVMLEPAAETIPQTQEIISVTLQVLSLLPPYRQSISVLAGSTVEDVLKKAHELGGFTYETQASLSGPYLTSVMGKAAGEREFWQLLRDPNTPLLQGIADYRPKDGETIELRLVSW

For the substance “soluble CD320 (sCD320), soluble receptor for transcobalamin-vitamin B12 (from UniProt Q9NPF0 36-229)”, the percent of sCD320 removed by precipitation with antibodies against TC (week 15, median) amounted to 36%; the percent of sCD320 removed by precipitation with antibodies against TC (week 25, median) is 36%; the percent of sCD320 removed by precipitation with antibodies against TC (week 35, median) was found to be 40%; the stoichiometry N (in general, the number of molecules, sites or subunits per partner or assembly) is 1.

The values are drawn from article PMC3754917.
